From patent publication US20180371066A1 (C2N DIAGNOSTICS, published 2018)

Assays:
[1] = target: T1, first 32 amino acids of human tau, expressed on yeast (human, UniProt P10636 1-32); assay: yeast display, immunofluorescence
T1 construct: range 1-32; Yeast display scaffold not described
T1 chain (looked up): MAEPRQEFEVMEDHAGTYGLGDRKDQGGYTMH
Protocol: The epitope was mapped using yeast display. For this method, various peptides covering the sequence of human tau were expressed using by yeast. Binding of the HJ8.5 antibody to yeast in culture was measured by immunofluorescence. Binding to yeast, expressing variants of tau that included the first 34 amino acids was observed, but no binding, if the yeast only expressed the first 32 amino acids of tau.

PEP_2875804 = target: T2, PEP_2875804; assay: peptide array of 15-mers of human tau probed with the antibody; label LIN
T2 peptide: AGTYGLGDRKDQGGY

PEP_2875806 = target: T3, PEP_2875806; assay: as above
T3 peptide: GTYGLGDRKDQGGYT

PEP_2875808 = target: T4, PEP_2875808; assay: as above
T4 peptide: TYGLGDRKDQGGYTM

PEP_2875810 = target: T5, PEP_2875810; assay: as above
T5 peptide: YGLGDRKDQGGYTMH

PEP_2875812 = target: T6, PEP_2875812; assay: as above
T6 peptide: GLGDRKDQGGYTMHQ

PEP_2875814 = target: T7, PEP_2875814; assay: as above
T7 peptide: LGDRKDQGGYTMHQD

PEP_2875816 = target: T8, PEP_2875816; assay: as above
T8 peptide: GDRKDQGGYTMHQDQ

PEP_2875818 = target: T9, PEP_2875818; assay: as above
T9 peptide: DRKDQGGYTMHQDQE

PEP_2875820 = target: T10, PEP_2875820; assay: as above
T10 peptide: RKDQGGYTMHQDQEG

PEP_2875822 = target: T11, PEP_2875822; assay: as above
T11 peptide: KDQGGYTMHQDQEGD

PEP_2875824 = target: T12, PEP_2875824; assay: as above
T12 peptide: DQGGYTMHQDQEGDT

PEP_2875826 = target: T13, PEP_2875826; assay: as above
T13 peptide: QGGYTMHQDQEGDTD

rhesus monkey tau = target: T14, rhesus monkey tau (rhesus monkey, UniProt P57786 2-60); assay: direct ELISA on 96-well plates coated with tau at varied concentration; OD 650nm
T14 construct: also called rhesus tau
T14 sequence: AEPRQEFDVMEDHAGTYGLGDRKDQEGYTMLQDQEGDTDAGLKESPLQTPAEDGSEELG
Protocol: FIG. 10 illustrates the binding results for different anti human tau antibodies to either human or rhesus monkey tau. Murine anti human tau antibodies HJ8.5 and HJ8.7 alongside humanized variant VH1/VK2 (also referred to as C₂N-8E12) were tested. […] In order to determine whether these amino acid difference between the two species of tau, impacts the ability of antibodies HJ8.5/C₂N-8E12 to bind the following experiment was performed. Binding of C₂N-8E12, HJ8.5 (murine precursor of C₂N-8E12), and HJ8.7 (murine anti-human tau antibody that binds to an epitope of tau where the human and rhesus amino acid sequence is 100% conserved) to human and rhesus tau by coating 96 well ELISA plates with either human or rhesus tau at various concentrations was measured. […] As expected, HJ8.7 binds to both human and rhesus tau.

PEP_2875809 = target: T15, PEP_2875809; assay: peptide array of 15-mers of human tau probed with the antibody; label LIN.AA (double alanine)
T15 peptide: TYGLGDRKDAAGYTM

PEP_2875811 = target: T16, PEP_2875811; assay: as above
T16 peptide: YGLGDRKDQAAYTMH

PEP_2875817 = target: T17, PEP_2875817; assay: as above
T17 peptide: GDRKDQGGYAAHQDQ

PEP_2875819 = target: T18, PEP_2875819; assay: as above
T18 peptide: DRKDQGGYTAAQDQE

PEP_2875821 = target: T19, PEP_2875821; assay: as above
T19 peptide: RKDQGGYTMAADQEG

PEP_2875823 = target: T20, PEP_2875823; assay: as above
T20 peptide: KDQGGYTMHAAQEGD

PEP_2875825 = target: T21, PEP_2875825; assay: as above
T21 peptide: DQGGYTMHQAAEGDT

PEP_2875827 = target: T22, PEP_2875827; assay: as above
T22 peptide: QGGYTMHQDAAGDTD

human tau [2] = target: T23, human tau (human, UniProt P10636 2-60); assay: competition ELISA on plate-coated human tau against biotinylated HJ8.5; IC50 normalised to chimeric HJ8.5; column External
T23 construct: also called soluble human tau; human tau protein

human tau [3] = target: T23, human tau; assay: competition ELISA on plate-coated human tau against biotinylated HJ8.5; IC50 normalised to chimeric HJ8.5; column C2N Run 1
human tau [4] = target: T23, human tau; assay: competition ELISA on plate-coated human tau against biotinylated HJ8.5; IC50 normalised to chimeric HJ8.5; column C2N Run 2

T23 sequence (P10636 2-60 limits assumed): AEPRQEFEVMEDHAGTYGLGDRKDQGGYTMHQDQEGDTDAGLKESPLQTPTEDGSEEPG

B1: murine anti-tau antibody HJ8.5 (antibody, V domains shown)
VH: EVKVEESGGGLVQPGGSMKLSCVVSGFTFSNYWVNWVRQSPEKGLEWVAQIRLKSDNYATHYEESVKGRFTISRDDSKSSVYLQMNNLRAEDSGIYYCTNWEDYWGQGTTLTVSS
VL: DIVLTQSPASLAVSLGQRATISCRASQSVSTSRYSYIHWYQQKPGQPPKLLIKYASNLESGVPARFSGSGSGTDFTLNIHPLEEEDAATYYCHHSWEIPLTFGAGTKLELK
notes: Murine monoclonal antibody; also called parent antibody; murine parent
[1]
  binding result: no binding
PEP_2875804
  Binding Signal: 427
PEP_2875806
  Binding Signal: 2640
PEP_2875808
  Binding Signal: 2640
PEP_2875810
  Binding Signal: 2840
PEP_2875812
  Binding Signal: 2820
PEP_2875814
  Binding Signal: 2840
PEP_2875816
  Binding Signal: 2650
PEP_2875818
  Binding Signal: 2690
PEP_2875820
  Binding Signal: 2700
PEP_2875822
  Binding Signal: 2700
PEP_2875824
  Binding Signal: 2680
PEP_2875826
  Binding Signal: 399
Rhesus monkey tau
  binding result: no binding
PEP_2875809
  Binding Signal: 2810
PEP_2875811
  Binding Signal: 1780
PEP_2875817
  Binding Signal: 2640
PEP_2875819
  Binding Signal: 2700
PEP_2875821
  Binding Signal: 2710
PEP_2875823
  Binding Signal: 2710
PEP_2875825
  Binding Signal: 2710
PEP_2875827
  Binding Signal: 427
Human tau [2]
  IC50 (Relative to Chimera): 1.07 relative to Chimera
Human tau [3]
  IC50 (Relative to Chimera): 0.79 relative to Chimera
Human tau [4]
  IC50 (Relative to Chimera): 0.99 relative to Chimera
